Data from patent US20150119475.

Biological target: Snail protein (SNAI1/Snail, expressed as GST fusion in E. coli, GST moiety cleaved with thrombin), O95863
Sequence (O95863 whole entry, the tested form may be a part): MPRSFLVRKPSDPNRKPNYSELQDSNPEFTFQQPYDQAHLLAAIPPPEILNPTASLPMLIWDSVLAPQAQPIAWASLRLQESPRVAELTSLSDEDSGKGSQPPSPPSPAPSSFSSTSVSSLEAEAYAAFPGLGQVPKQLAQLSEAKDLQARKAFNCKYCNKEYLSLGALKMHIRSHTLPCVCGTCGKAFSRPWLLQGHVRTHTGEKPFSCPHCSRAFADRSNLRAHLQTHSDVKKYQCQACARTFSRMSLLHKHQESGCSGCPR

B1: recombinant Akt1 (ProQinase GmbH) (protein)
chain: VADGLKKQEEEEMDFRSGSPSDNSGAEEMEVSLAKPKHRVTMNEFEYLKLLGKGTFGKVILVKEKATGRYYAMKILKKEVIVAKDEVAHTLTENRVLQNSRHPFLTALKYSFQTHDRLCFVMEYANGGELFFHLSRERVFSEDRARFYGAEIVSALDYLHSEKNVVYRDLKLENLMLDKDGHIKITDFGLCKEGIKDGATMKTFCGTPEYLAPEVLEDNDYGRAVDWWGLGVVMYEMMCGRLPFYNQDHEKLFELILMEEIRFPRTLGPEAKSLLSGLLKKDPKQRLGGGSEDAKEIMQHRFFAGIVWQHVYEKKLSPPFKPQVTSETDTRYFDEEFTAQMITITPPDQDDSMECVDSERRPHFPQFSYSASGTA
  in vitro kinase assay with 32P-ATP, detected by autoradiography: Akt1 and Akt3 kinases are able to directly phosphorylate Snail protein
